Test [1] addresses histone H1 peptide SEQ ID NO: 17 (human). Put plainly: ELISA on coated peptide; rFab at 1.0, 3.0 and 10.0 µg/ml. (ELISA stands for enzyme-linked immunosorbent assay.)
The target in test [2] is histone H1 peptide SEQ ID NO: 20 (human). Described as above.

Here are results for 1 molecule from patent publication US7183065.

B1: NANUC-2 (Fab)
chain 1: VKLLEQSGGGVVQPGKSLRLSCAASGFTFRNYGMHWVRQAPGKGLEWVAGISSDGRKKKYVDSVKGRFTISRDKSKNTLYLQMNSLRAEDTAVYYCAKLSRAGGFDIWGQGTMVTVSS
chain 2: AELTQSPGTLSLFPGERATLSCRASQRISTSFLAWYQQKPGQSPRLLIFDASTRAPGIPDRFSASWSGTDFTLTISRLEPEDFAVYYCQHYGGSPWTFGQGTKVEIK
For B1, the OD405 in test [1] came to 0.25 OD405; in test [2], 0.5 OD405.
